The text below walks through data of patent publication US20180371075A1.

The assay addresses human IL-3 expressed by E. coli (Peprotech), non-glycosylated (human) (UniProt P08700). The assay is described as follows: cell-based or functional assay.
UniProt P08700, sequence (P08700 28-152, tags or fused parts left off): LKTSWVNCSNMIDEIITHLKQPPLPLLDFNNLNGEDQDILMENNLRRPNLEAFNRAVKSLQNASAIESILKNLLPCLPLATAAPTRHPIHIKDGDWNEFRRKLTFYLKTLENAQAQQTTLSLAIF

Regarding “R&D monoclonal anti-IL-3 antibody clone 4806 (R&D Systems, Inc., catalogue No. MAB203)”, the IC50, IL-3 dependent growth of TF1 cells stood at 0.033 mg/L.
